Assay results: paper PMC12004451, “Characterization of the Two-Domain Peptide Binding Mechanism of the Human CGRP Receptor for CGRP and the Ultrahigh Affinity ssCGRP Variant” (Biochemistry, 2025)
Several values for one entry are separate records, joined by “and”; a condition that tells them apart may be missing. Equal entries are not always repeated. Where two headings read alike, the source gives them in different places. Each block holds one compound with its values, some of them ahead of it. Ends that are not written are not given here. Peptide text beside a SMILES is read from it. * marks the point of attachment. 5TAMRA = CN(C)c1ccc2c(c1)Oc1cc(N(C)C)ccc1C21OC(=O)c2cc(C(=O)*)ccc21

What was measured:
[1] = molecular target: T1, CGRP receptor (Nluc-CLR:RAMP1) (Homo sapiens, UniProt O60894+Q16602); experiment: nanoBRET association kinetics of TAMRA probes; format: binding; settings: association kinetics, 25 °C, mean ± SEM, n=3
T1 construct: N-terminally Nanoluciferase (NLuc)-tagged CLR (pcDNA3.1(+)sec/NanoLuc-GSGIS-CLR.23-461); Wild-type CLR and RAMP expression plasmids were obtained from cDNA.org; sec (vector secretion signal before NanoLuc) (N); expressed in transfected cells; host or cells: COS-7 cells, membrane preparation
Method: After 2 days, the cells were washed with PBS and harvested with ice-cold PBS + 5 mM EDTA. The cells were pelleted in a centrifuge at 1000g for 5 min at 4 °C and resuspended in a hypotonic buffer (25 mM NaHEPES pH 7.5, 2 mM MgCl2, 1 mM EDTA, and 1× EDTA-free PIERCE protease inhibitor tablet). After resuspension, cells were homogenized with an Ultra Turrax for 30 s at 10,000 rpm followed by a 10 min incubation. Cell debris was pelleted at 800g for 10 min and the supernatant was transferred to ultracentrifuge tubes and centrifuged at 100,000g for 1 h. Membranes were resuspended in a wash buffer (25 mM NaHEPES pH 7.5, 250 mM NaCl, 2 mM MgCl2, 1 mM EDTA, and 1× protease inhibitor tablet). The homogenization and ultracentrifugation were repeated once more and the membranes were resuspended in storage buffer (25 mM NaHEPES pH 7.5, 25 mM NaCl, 2 mM MgCl2, 10% v/v glycerol, and 1× protease inhibitor tablet). The resuspended membranes were homogenized, aliquoted, and flash frozen in liquid nitrogen for storage at -80 °C. Total protein was quantitated using the DC protein assay (BioRad) per the manufacturer's instructions. The concentration of NLuc-CLR was determined by comparing the membrane prep luminescence to a standard curve using purified NLuc enzyme (Promega; […]). […] Costar 3912). […] The observed association rates (kobs) were plotted against probe concentration and the data was analyzed by linear regression. The kon and koff were obtained as the slope and y-intercept, respectively.

[2] = molecular target: T1, CGRP receptor (Nluc-CLR:RAMP1); experiment: nanoBRET dissociation kinetics of TAMRA probes; format: binding
Method: After 2 days, the cells were washed with PBS and harvested with ice-cold PBS + 5 mM EDTA. The cells were pelleted in a centrifuge at 1000g for 5 min at 4 °C and resuspended in a hypotonic buffer (25 mM NaHEPES pH 7.5, 2 mM MgCl2, 1 mM EDTA, and 1× EDTA-free PIERCE protease inhibitor tablet). After resuspension, cells were homogenized with an Ultra Turrax for 30 s at 10,000 rpm followed by a 10 min incubation. Cell debris was pelleted at 800g for 10 min and the supernatant was transferred to ultracentrifuge tubes and centrifuged at 100,000g for 1 h. Membranes were resuspended in a wash buffer (25 mM NaHEPES pH 7.5, 250 mM NaCl, 2 mM MgCl2, 1 mM EDTA, and 1× protease inhibitor tablet). The homogenization and ultracentrifugation were repeated once more and the membranes were resuspended in storage buffer (25 mM NaHEPES pH 7.5, 25 mM NaCl, 2 mM MgCl2, 10% v/v glycerol, and 1× protease inhibitor tablet). The resuspended membranes were homogenized, aliquoted, and flash frozen in liquid nitrogen for storage at -80 °C. Total protein was quantitated using the DC protein assay (BioRad) per the manufacturer's instructions. The concentration of NLuc-CLR was determined by comparing the membrane prep luminescence to a standard curve using purified NLuc enzyme (Promega; […]). The total protein concentration was 0.91 mg/mL and the NLuc-CLR was 7.35 nM. For dissociation kinetics, the membranes and probe in binding buffer were incubated in a 96-well white plate (Corning; Costar 3912) followed by furimazine addition at 1× for 5 min (75 μL volume). […] The buffer control defined the stability of the signal. […] Unlabeled […](8-37) (4×; 10 μM) or binding buffer was loaded into the injectors and injected into the plate, which was read for 4 h. […](8-37) (4×; 1 μM) or binding buffer was loaded into the injectors and injected into the plate, which was read for 1 h. The BRET ratio 610/460 was plotted against time and the membrane only control was subtracted. The dissociation data were normalized to their corresponding buffer control injections as 100% (100*value/baseline) to account for signal decay with time. The normalized dissociation curves were fit to a one-phase (dashed line) (https://www.graphpad.com/guides/prism/latest/curve-fitting/reg_exponential_[…]) or a two-phase (solid line) (https://www.graphpad.com/guides/prism/latest/curve-fitting/reg_exponential_[…]) exponential decay models in GraphPad Prism to determine the koff.

[3] = molecular target: NLuc-CLR:RAMP1 (human CGRP receptor, CGRPR), membrane preparation (human) (UniProt Q16602); experiment: FRET or BRET; nanoBRET association kinetics; membranes injected into 2-fold serial dilutions of TAMRA probe; 25 °C; one-phase association fits, kobs against probe concentration by linear regression (kon slope, koff intercept); Kd calculated as koff/kon
[4] = molecular target: NLuc-CLR:RAMP1 membranes with 30 μM purified sumo-miniGs (G protein-coupled state of the CGRPR) (UniProt Q16602); experiment: FRET or BRET; nanoBRET equilibrium saturation binding; as the uncoupled format but with 30 μM purified sumo-miniGs (G protein coupled state); 4 h; room temperature
[5] = molecular target: NLuc-CLR:RAMP1 (human CGRP receptor, CGRPR), membrane preparation (human) (UniProt Q16602); experiment: FRET or BRET; nanoBRET competition association kinetics, simultaneous addition of 20 nM CGRP(27-37)*-TAMRA and unlabeled (27-37) peptide; 25 °C; Motulsky-Mahan equation with a signal decay term; Kd calculated as koff/kon
[6] = molecular target: NLuc-CLR:RAMP1 (human CGRP receptor, CGRPR), membrane preparation (human) (UniProt Q16602)
[7] = molecular target: T1, CGRP receptor (Nluc-CLR:RAMP1); experiment: nanoBRET equilibrium competition binding, Nluc-CLR:RAMP1 membranes; settings: 8 h, room temperature, Cheng-Prusoff, mean ± SEM, n=3
Method: After 2 days, the cells were washed with PBS and harvested with ice-cold PBS + 5 mM EDTA. The cells were pelleted in a centrifuge at 1000g for 5 min at 4 °C and resuspended in a hypotonic buffer (25 mM NaHEPES pH 7.5, 2 mM MgCl2, 1 mM EDTA, and 1× EDTA-free PIERCE protease inhibitor tablet). After resuspension, cells were homogenized with an Ultra Turrax for 30 s at 10,000 rpm followed by a 10 min incubation. Cell debris was pelleted at 800g for 10 min and the supernatant was transferred to ultracentrifuge tubes and centrifuged at 100,000g for 1 h. Membranes were resuspended in a wash buffer (25 mM NaHEPES pH 7.5, 250 mM NaCl, 2 mM MgCl2, 1 mM EDTA, and 1× protease inhibitor tablet). The homogenization and ultracentrifugation were repeated once more and the membranes were resuspended in storage buffer (25 mM NaHEPES pH 7.5, 25 mM NaCl, 2 mM MgCl2, 10% v/v glycerol, and 1× protease inhibitor tablet). The resuspended membranes were homogenized, aliquoted, and flash frozen in liquid nitrogen for storage at -80 °C. Total protein was quantitated using the DC protein assay (BioRad) per the manufacturer's instructions. The concentration of NLuc-CLR was determined by comparing the membrane prep luminescence to a standard curve using purified NLuc enzyme (Promega; […]). […] The Cheng-Prusoff correction[30] was used to calculate the Ki from the IC50.

[8] = molecular target: NLuc-CLR:RAMP1 (human CGRP receptor, CGRPR), membrane preparation (human) (UniProt Q16602); experiment: FRET or BRET; nanoBRET equilibrium saturation binding; 3-fold serial dilutions of TAMRA probe with NLuc-CLR:RAMP1 membranes (0.01 mg/mL total protein, 0.08 nM NLuc-CLR) and 50 μM GTPγS (uncoupled state); 2 h or 4 h; room temperature; 25 mM NaHEPES pH 7.4, […] NaCl, 5 mM KCl, 1 mM KH2PO4, 3 mM MgSO4, 2 mM CaCl2, 1 mg/mL FAF-BSA, 50 μg/mL saponin; one-site specific binding fit
[9] = molecular target: NLuc-CLR:RAMP1 (human CGRP receptor, CGRPR), membrane preparation (human) (UniProt Q16602); experiment: FRET or BRET; nanoBRET dissociation kinetics; membranes preincubated with probe (1 nM ssCGRP(8-37)-TAMRA or 10 nM AM2/IMD(8-47)-TAMRA), dissociation started by injection of excess unlabeled ssCGRP(8-37); 25 °C; normalised to buffer control; two-phase exponential decay
[10] = molecular target: NLuc-CLR:RAMP1 (human CGRP receptor, CGRPR) in COS-7 membranes (human) (UniProt Q16602); experiment: FRET or BRET; nanoBRET association kinetics of TAMRA probe on NLuc-CLR:RAMP1 COS-7 membranes, 25 C; kobs against probe concentration, linear regression; Kd calculated as koff/kon
[11] = molecular target: NLuc-CLR:RAMP1 (human CGRP receptor, CGRPR) in COS-7 membranes (human) (UniProt Q16602); experiment: FRET or BRET; nanoBRET equilibrium saturation binding of TAMRA probe to NLuc-CLR:RAMP1 COS-7 membranes (0.08 nM NLuc-CLR), G protein uncoupled state with 50 uM GTPgammaS, room temperature, 25 mM NaHEPES pH 7.4, […] NaCl; one-site specific binding fit
[12] = 1/koff slow, two-phase dissociation, read-out: Residence time slow

Compound: AM2/IMD(8-47)-TAMRA (peptide)
Kd [3]: 8.1 nM | half-life [3]: 1.6 min | Kd [4]: 6.5 nM

Compound: CGRP(27-37) (peptide)
half-life [5]: 0.06 min | apparent melting temperature of LMNG/CHS-solubilised MBP-CLR-EGFP:MBP-RAMP1 heterodimer, native PAGE thermostability assay (ligand-free 38.2 °C) [6]: 39.8 °C

Compound: VTHRLAGLLSRSGGVVKNNFVPTDVGPWSF-NH2 [ssCGRP(8-37)]
Ki ([7]; G protein coupled state (30 μM sumo-miniGs), 3 nM AM2/IMD(8-47)-TAMRA probe, read-out: Ki + mGs): 0.6 ± 0.05 nM | Ki ([7]; G protein uncoupled state (50 μM GTPγS), 30 nM AM2/IMD(8-47)-TAMRA probe, read-out: Ki + GTPγS): 0.43 ± 0.02 nM | residence time [2, 12]: 76 min | affinity (summary, both receptor states): 0.5 nM

Compound: αCGRP(27-37) N31D/S34P/K35-TAMRA/A36S/F37Y (peptide)
Kd [8]: 28.7 nM | Kd [3]: 22.5 nM | half-life [3]: 0.183 min | koff [3]: 0.0635 s⁻¹ | kon [3]: 2.75e+06 M⁻¹ s⁻¹ | Kd [10]: 22.5 nM | Kd [11]: 28.7 nM

The remaining lines, values ahead:

kon ([1]; kobs vs probe concentration, slope of linear regression, fit of first 10 min (full 1 h 15 min for ssCGRP(8-37)-TAMRA)): 3.62e+06 M⁻¹ s⁻¹ | koff ([1]; y-intercept of kobs vs probe concentration): 0.0003 s⁻¹ | residence time ([2]; 1/koff fast, two-phase dissociation, read-out: Residence time fast): 19.1 ± 1.9 min | residence time [2, 12]: 75.7 ± 3.49 min | t1/2 fast ([2]; ln 2/koff fast, two-phase dissociation): 13.25 ± 1.32 min and 13 min | t1/2 slow ([2]; ln 2/koff slow, two-phase dissociation): 52.45 ± 2.42 min and 52 min | Percent fast ([2]; share of the fast component, two-phase dissociation): 25.6 ± 3.5% and 25.6% | koff ([2]; two-phase exponential decay, same conditions as koff fast, mean ± SEM, n=3): 0.000222 s⁻¹
Compound: CC(C)C[C@H](NC(=O)CNC(=O)[C@H](C)NC(=O)[C@H](CC(C)C)NC(=O)[C@H](CCCNC(=N)N)NC(=O)[C@H](Cc1c[nH]cn1)NC(=O)[C@@H](NC(=O)[C@@H](N)C(C)C)[C@@H](C)O)C(=O)N[C@@H](CC(C)C)C(=O)N[C@@H](CO)C(=O)N[C@@H](CCCNC(=N)N)C(=O)N[C@@H](CO)C(=O)NCC(=O)NCC(=O)N[C@H](C(=O)N[C@H](C(=O)N[C@@H](CCCCN)C(=O)N[C@@H](CC(N)=O)C(=O)N[C@@H](CCCCNC(=O)c1ccc2c(c1)C(=O)OC21c2ccc(N(C)C)cc2Oc2cc(N(C)C)ccc21)C(=O)N[C@@H](Cc1ccccc1)C(=O)N[C@H](C(=O)N1CCC[C@H]1C(=O)N[C@H](C(=O)N[C@@H](CC(=O)O)C(=O)N[C@H](C(=O)NCC(=O)N1CCC[C@H]1C(=O)N[C@@H](Cc1c[nH]c2ccccc12)C(=O)N[C@@H](CO)C(=O)N[C@@H](Cc1ccccc1)C(N)=O)C(C)C)[C@@H](C)O)C(C)C)C(C)C)C(C)C [ssCGRP(8-37)-TAMRA, αCGRP(8-37) N26K-TAMRA/N31D/S34P/K35W/A36S] (H-VTHRLAGLLSRSGGVVKNK(5TAMRA)FVPTDVGPWSF-NH2; N-terminus assumed)

apparent melting temperature of LMNG/CHS-solubilised MBP-CLR-EGFP:MBP-RAMP1 heterodimer, native PAGE thermostability assay (ligand-free 38.2 °C) [6]: 43.6 °C
Compound: αCGRP(8-37) (peptide)

Kd [8]: 0.4 nM | Kd [3]: 0.085 nM | half-life [3]: 38 min | koff [3]: 0.0003 s⁻¹ | kon [3]: 3.62e+06 M⁻¹ s⁻¹ | half-life of the fast component [9]: 13 min | half-life of the slow component [9]: 52 min | koff fast [9]: 0.053 min^–1 | koff slow [9]: 0.013 min^–1 | residence time (1/koff slow) [9]: 76 min | residence time of the fast component [9]: 19 min
Compound: αCGRP(8-37) N26K-TAMRA/N31D/S34P/K35W/A36S (peptide)
